For one series, the target named is XPA M32-4 (UniProt P23025 1-273, R30E;K31E;R32E;R34E). As to the kind of experiment: MST.
For another series, the target named is XPA M32-4/70-2 (UniProt P23025 1-273, R30E;K31E;R32E;R34E;E106K;F112A). In words: MST.

From paper PMC9407234 come the findings set out here.

XPA M32-4, sequence (P23025 whole entry R30E/K31E/R32E/R34E): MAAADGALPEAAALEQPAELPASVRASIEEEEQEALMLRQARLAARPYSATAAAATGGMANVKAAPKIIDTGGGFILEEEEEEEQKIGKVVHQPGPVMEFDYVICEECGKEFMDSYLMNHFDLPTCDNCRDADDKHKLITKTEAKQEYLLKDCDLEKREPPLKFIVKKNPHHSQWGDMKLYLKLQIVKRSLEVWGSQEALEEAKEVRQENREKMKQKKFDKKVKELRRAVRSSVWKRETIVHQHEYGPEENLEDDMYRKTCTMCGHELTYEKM
XPA M32-4/70-2, sequence (P23025 whole entry R30E/K31E/R32E/R34E/E106K/F112A): as the sequence (P23025 whole entry R30E/K31E/R32E/R34E) above, with E106K, F112A counted along it

Broadly, the Kd is the concentration at which binding is half-saturated. Take TTTTGCGGCCGCTTTTGCGGCCGC (structured_DNA) [4-nt hairpin NER junction mimic]: the Kd in the series with XPA M32-4 was determined as 8.4 ± 2.3 µM; with XPA M32-4/70-2 it was 10 ± 3 µM.
